According to patent US20200079854A1 (Johns Hopkins, published 2020):
One block for each binder: values may come before it.

Key:
[1] = biological target: CTNNB wt(41-49) peptide … with HLA-A3 and b2M on peptide-pulsed T2A3 cells (human); assay: flow cytometry, phage-displayed scFv on peptide-pulsed T2A3 cells (FIG. 12)
Method: (§1) Cells were stained with 10 of precipitated phage per 100 μL of cells, washed and stained with rabbit anti-M13 antibody, then washed and stained with anti-Rabbit-PE antibody. Cells were stained with a live/dead Near-IR dye, washed, and analyzed by an LSRII flow cytometer.
(§2) The pulsed cells were pelleted, washed once in cold stain buffer (PBS containing 0.5% BSA, 2 mM EDTA, and 0.1% sodium azide), and resuspended in 100 μL of stain buffer. Phage staining was performed on ice with 10 uL (approximately 1×10⁹) phage for 1 hour in 100 uL total volume, followed by one 4 mL wash in cold stain buffer. Cells were then stained with 1 uL of rabbit anti-M13 antibody (Pierce, Rockford, Ill.) in 100 uL total volume on ice for 1 hour and washed once with 4 mL of cold stain buffer. Cells were stained with anti-rabbit-PE (Biolegend) on ice for 1 hour in 100 uL total volume, followed by incubation with LIVE/DEAD Fixable Near-IR Dead Cell Stain (Thermo Fisher) for 10 min at room temperature per manufacturer's instructions. Cells were washed once in 4 mL of stain buffer followed by resuspension in 300 uL of stain buffer before analysis. Stained cells were analyzed using an LSRII flow cytometer (Becton Dickinson, Mansfield, Mass.).

[2] = biological target: KRAS wt(7-16) peptide … with HLA-A11 and b2M on peptide-pulsed Hs611.T cells (human); assay: flow cytometry, phage-displayed scFv on peptide-pulsed Hs611.T cells (FIG. 9)
Method: as §1, §2

[3] = biological target: T1, KRAS wt(7-16) peptide … with HLA-A3 and b2M on cells (human); assay: flow cytometry, phage-displayed scFv on peptide-pulsed T2A3 cells (FIG. 7)
T1 construct: peptide-pulsed T2A3 cells in flow cytometry
Method: as §2

[4] = biological target: T2, IDH2 wt(134-143) peptide … with HLA-B7 and b2M on cells (human); assay: flow cytometry, phage-displayed scFv on peptide-pulsed RPMI-6666 cells (FIG. 3)
T2 construct: peptide-pulsed RPMI-6666 cells in flow cytometry
Method: Cells were stained with 10 μL of precipitated phage per 100 μL of cells, washed and stained with rabbit anti-M13 antibody, then washed and stained with anti-Rabbit-PE antibody. Cells were stained with a live/dead Near-IR dye, washed, and analyzed by an LSRII flow cytometer.
as §2

[5] = biological target: control 1 peptide (…, artificial sequence) HLA-B7 biotinylated monomer (biotinylated (site not given)); assay: phage ELISA on monomer-coated streptavidin plate (FIG. 1)
[6] = biological target: control 3 peptide (…, a different peptide from wt IDH2) HLA-B7 biotinylated monomer (biotinylated (site not given)); assay: as above
[7] = biological target: T3, IDH2 wt peptide (…) HLA-B7 biotinylated monomer (biotinylated (site not given)); assay: as above
T3 construct: also called wt version of the peptide of interest in complex with the same HLA allele

B1: CTNNB_S45_FA3 c17 (scFv)
scFv: DIQMTQSPSSLSASVGDRVTITCRASQDVNTAVAWYQQKPGKAPKLLIYSASFLYSGVPSRFSGSRSGTDFTLTISSLQPEDFATYYCQQQYAYTPITFGQGTKVEIKRTGGGSGGGGSGGGASEVQLVESGGGLVQPGGSLRLSCAASGFNVWSYGIHWVRQAPGKGLEWVAGVTPDGSYTYYADSVKGRFTISADTSKNTAYLQMNSLRAEDTAVYYCSRSYGWAMDYWGQGTLVTVSS
binding result [1]: no binding

B2: KRAS_G12D_A11_D22 (scFv)
scFv: DIQMTQSPSSLSASVGDRVTITCRASQDVNTAVAWYQQKPGKAPKLLIYSASFLYSGVPSRFSGSRSGTDFTLTISSLQPEDFATYYCQQYEYYPMTFGQGTKVEIKRTGGGSGGGGSGGGASEVQLVESGGGLVQPGGSLRLSCAASGFNVMYSTMHWVRQAPGKGLEWVASIYSWSDYTYYADSVKGRFTISADTSKNTAYLQMNSLRAEDTAVYYCSRGYAHNSFDYWGQGTLVTVSS
binding result [2]: no binding

B3: KRAS G12V_A3_V12 (scFv)
scFv: DIQMTQSPSSLSASVGDRVTITCRASQDVNTAVAWYQQKPGKAPKLLIYSASFLYSGVPSRFSGSRSGTDFTLTISSLQPEDFATYYCQQASYYYPLTFGQGTKVEIKRTGGGSGGGGSGGGASEVQLVESGGGLVQPGGSLRLSCAASGFNISASGMHWVRQAPGKGLEWVADIHPLKPYTNYADSVKGRFTISADTSKNTAYLQMNSLRAEDTAVYYCSRYSSMYYYYFDYWGQGTLVTVSS
binding result [3]: no binding

B4: CTNNB_S45_FA3_c14 (scFv)
scFv: DIQMTQSPSSLSASVGDRVTITCRASQDVNTAVAWYQQKPGKAPKLLIYSASFLYSGVPSRFSGSRSGTDFTLTISSLQPEDFATYYCQQRAYFPITFGQGTKVEIKRTGGGSGGGGSGGGASEVQLVESGGGLVQPGGSLRLSCAASGFNFSDYGMHWVRQAPGKGLEWVAMLIPASGYTNYADSVKGRFTISADTSKNTAYLQMNSLRAEDTAVYYCSRGWSYYMDYWGQGTLVTVSS
binding result [1]: no binding

B5: KRAS G12V_A3_c121 (scFv)
scFv: DIQMTQSPSSLSASVGDRVTITCRASQDVNTAVAWYQQKPGKAPKLLIYSASFLYSGVPSRFSGSRSGTDFTLTISSLQPEDFATYYCQQSGYIPFTFGQGTKVEIKRTGGGSGGGGSGGGASEVQLVESGGGLVQPGGSLRLSCAASGFNIYGTMMHWVRQAPGKGLEWVAQFKPDSYNTYYADSVKGRFTISADTSKNTAYLQMNSLRAEDTAVYYCSRGEVYHYYAFDYWGQGTLVTVSS
binding result [3]: no binding

B6: KRAS G12V_A3_c122 (scFv)
scFv: DIQMTQSPSSLSASVGDRVTITCRASQDVNTAVAWYQQKPGKAPKLLIYSASFLYSGVPSRFSGSRSGTDFTLTISSLQPEDFATYYCQQGAYYRPFTFGQGTKVEIKRTGGGSGGGGSGGGASEVQLVESGGGLVQPGGSLRLSCAASGFNISYSYMHWVRQAPGKGLEWVATLLPYDGNTYYADSVKGRFTISADTSKNTAYLQMNSLRAEDTAVYYCSRAAYSSMDVWGQGTLVTVSS
binding result [3]: no binding

B7: IDH2_R140Q_B7_c129 (scFv)
scFv: DIQMTQSPSSLSASVGDRVTITCRASQDVNTAVAWYQQKPGKAPKLLIYSASFLYSGVPSRFSGSRSGTDFTLTISSLQPEDFATYYCQQGKAYWPATFGQGTKVEIKRTGGGSGGGGSGGGASEVQLVESGGGLVQPGGSLRLSCAASGFNVGHYRMHWVRQAPGKGLEWVAMVSPNGYYTYYADSVKGRFTISADTSKNTAYLQMNSLRAEDTAVYYCSRGYSSYAFDYWGQGTLVTVSS
notes: also called IDH2 R140Q(134-143)-B7 c1.29
binding result [4]: no binding
binding result [5]: no binding
binding result [6]: no binding
binding result [7]: no binding

B8: KRAS_G12D_A11_D21 (scFv)
scFv: DIQMTQSPSSLSASVGDRVTITCRASQDVNTAVAWYQQKPGKAPKLLIYSASFLYSGVPSRFSGSRSGTDFTLTISSLQPEDFATYYCQQYAYYSPVTFGQGTKVEIKRTGGGSGGGGSGGGASEVQLVESGGGLVQPGGSLRLSCAASGFNIYGQMMHWVRQAPGKGLEWVAFLSPFSGNTYYADSVKGRFTISADTSKNTAYLQMNSLRAEDTAVYYCSRNISYEQSSAFDYWGQGTLVTVSS
binding result [2]: no binding

B9: KRAS_G12D_A11_D14 (scFv)
scFv: DIQMTQSPSSLSASVGDRVTITCRASQDVNTAVAWYQQKPGKAPKLLIYSASFLYSGVPSRFSGSRSGTDFTLTISSLQPEDFATYYCQQYSYTPVTFGQGTKVEIKRTGGGSGGGGSGGGASEVQLVESGGGLVQPGGSLRLSCAASGFNVWGPGMHWVRQAPGKGLEWVARIHPFSGNTYYADSVKGRFTISADTSKNTAYLQMNSLRAEDTAVYYCSRGYSYSAMDYWGQGTLVTVSS
binding result [2]: no binding

B10: KRAS_G12D_A11_D18 (scFv)
scFv: DIQMTQSPSSLSASVGDRVTITCRASQDVNTAVAWYQQKPGKAPKLLIYSASFLYSGVPSRFSGSRSGTDFTLTISSLQPEDFATYYCQQYSYEPVTFGQGTKVEIKRTGGGSGGGGSGGGASEVQLVESGGGLVQPGGSLRLSCAASGFNVSGSQMHWVRQAPGKGLEWVARIPGWSGYTYYADSVKGRFTISADTSKNTAYLQMNSLRAEDTAVYYCSRGYSYFAMDYWGQGTLVTVSS
binding result [2]: no binding

B11: CTNNB_S45_FA3 c19 (scFv)
scFv: DIQMTQSPSSLSASVGDRVTITCRASQDVNTAVAWYQQKPGKAPKLLIYSAYFLYSGVPSRFSGSRSGTDFTLTISSLQPEDFATYYCQQIHYKPLTFGQGTKVEIKRTGGGSGGGGSGGGASEVQLVESGGGLVQPGGSLRLSCAASGFNVAWYSIHWVRQAPGKGLEWVAQVYGGSSYTYYADSVKGRFTISADTSKNTAYLQMNSLRAEDTAVYYCSRDFYSSGMDYWGQGTLVTVSS
binding result [1]: no binding

B12: IDH2_R140Q_B7_c11 (scFv)
scFv: DIQMTQSPSSLSASVGDRVTITCRASQDVNTAVAWYQQKPGKAPKLLIYSASFLYSGVPSRFSGSRSGTDFTLTISSLQPEDFATYYCQQVYSSPFTFGQGTKVEIKRTGGGSGGGGSGGGASEVQLVESGGGLVQPGGSLRLSCAASGFNVKYYMMHWVRQAPGKGLEWVAAISPGYDYTYYADSVKGRFTISADTSKNTAYLQMNSLRAEDTAVYYCSRSYWRYSVDVWGQGTLVTVSS
notes: also called IDH2 R140Q(134-143)-B7 c1.1
binding result [4]: no binding
binding result [5]: no binding
binding result [6]: no binding
binding result [7]: no binding

Second part, the binder after the results:

binding result [1]: no binding
B13: CTNNB_S45_FA3_c13 (scFv)
scFv: DIQMTQSPSSLSASVGDRVTITCRASQDVNTAVAWYQQKPGKAPKLLIYSAYFLYSGVPSRFSGSRSGTDFTLTISSLQPEDFATYYCQQIYTSPITFGQGTKVEIKRTGGGSGGGGSGGGASEVQLVESGGGLVQPGGSLRLSCAASGFNFITTGMHWVRQAPGKGLEWVARIGPGSDYTNYADSVKGRFTISADTSKNTAYLQMNSLRAEDTAVYYCSRYYYASALDYWGQGTLVTVSS

binding result [1]: no binding
B14: CTNNB_S45F_A3_E10 (scFv)
scFv: DIQMTQSPSSLSASVGDRVTITCRASQDVNTAVAWYQQKPGKAPKLLIYSASFLYSGVPSRFSGSRSGTDFTLTISSLQPEDFATYYCQQSYYSPPTFGQGTKVEIKRTGGGSGGGASEVQLVESGGGLVQPGGSLRLSCAASGFNINNTYIHWVRQAPGKGLEWVASIYPTDGYTRYADSVKGRFTISADTSKNTAYLQMNSLRAEDTAVYYCSRTYYSYYSAMDVWGQGTLVTVSS

binding result [3]: no binding
B15: KRAS G12V_A3_c120 (scFv)
scFv: DIQMTQSPSSLSASVGDRVTITCRASQDVNTAVAWYQQKPGKAPKLLIYSASFLYSGVPSRFSGSRSGTDFTLTISSLQPEDFATYYCQQKSEYSPWTFGQGTKVEIKRTGGGSGGGGSGGGASEVQLVESGGGLVQPGGSLRLSCAASGFNIYRYGIHWVRQAPGKGLEWVAVLYPYGYSTSYADSVKGRFTISADTSKNTAYLQMNSLRAEDTAVYYCSRSYAYGYFAYWGQGTLVTVSS

binding result [2]: no binding
B16: KRAS_G12D_A11_D3 (scFv)
scFv: DIQMTQSPSSLSASVGDRVTITCRASQDVNTAVAWYQQKPGKAPKLLIYSASFLYSGVPSRFSGSRSGTDFTLTISSLQPEDFATYYCQQYSYYPITFGQGTKVEIKRTGGGSGGGGSGGGASEVQLVESGGGLVQPGGSLRLSCAASGFNFSYGYMHWVRQAPGKGLEWVAWISGYTGNTYYADSVKGRFTISADTSKNTAYLQMNSLRAEDTAVYYCSRAASLSSSYYSAFDVWGQGTLVTVSS

binding result [4]: no binding
binding result [5]: no binding
binding result [6]: no binding
binding result [7]: no binding
B17: IDH2_R140Q_B7_c18 (scFv)
scFv: DIQMTQSPSSLSASVGDRVTITCRASQDVNTAVAWYQQKPGKAPKLLIYSASFLYSGVPSRFSGSRSGTDFTLTISSLQPEDFATYYCQQSYYMPFTFGQGTKVEIKRTGGGSGGGGSGGGASEVQLVESGGGLVQPGGSLRLSCAASGFNIFRGYMHWVRQAPGKGLEWVAMISPHSDYTSYADSVKGRFTISADTSKNTAYLQMNSLRAEDTAVYYCSRSYGWAAFDYWGQGTLVTVSS

binding result [4]: no binding
binding result [5]: no binding
binding result [6]: no binding
binding result [7]: no binding
B18: IDH2_R140Q_B7_c13 (scFv)
scFv: DIQMTQSPSSLSASVGDRVTITCRASQDVNTAVAWYQQKPGKAPKLLIYSASFLYSGVPSRFSGSRSGTDFTLTISSLQPEDFATYYCQQYSLYSPMTFGQGTKVEIKRTGGGSGGGGSGGGASEVQLVESGGGLVQPGGSLRLSCAASGFNSFLSIHWVRQAPGKGLEWVAHIFPSSDYTSYADSVKGRFTISADTSKNTAYLQMNSLRAEDTAVYYCSRGKHSSDSNYYMDYWGQGTLVTVSS
notes: also called IDH2 R140Q(134-143)-B7 c1.3
